Data taken from patent US9145555B2, “Integrated—ligand-responsive microRNAs” (California Institute of Technology, priority 2009, dated 2015).

Experiments:
[1] = system: immunopurified Drosha complex; assay: In vitro Drosha cleavage assay; type: biochemical
Description: We performed in vitro Drosha cleavage assays that mimic the first step in miRNA biogenesis to examine the relationship between bulge size and Drosha processing. RNAs with varying bulge sizes in the basal segments (FIG. 1B) were transcribed in vitro, incubated with immunopurified Drosha, and resolved by PAGE (FIG. 1C). […] Such abortive processing has been previously observed in vitro and attributed to DGCR8 recognition of the terminal loop instead of the miRNA basal segments (Han et al., 2006).
Internally radiolabeled RNAs were transcribed in vitro from an annealed template containing the T7 promoter (5′-[…]-3′, where G is the first transcribed nucleotide) using the Ampliscribe T7 transcription kit (Epicentre) according to the manufacturer's instructions with [α-32P]-GTP. Following transcription and DNase treatment, the transcription product was purified through a NucAway clean-up column (Ambion) according to the manufacturer's instructions and gel-purified by PAGE.
In vitro assays were conducted as described previously (Lee
and Kim, 2007). Briefly, the Drosha complex was immunopurified from 293T cells transiently transfected with pCK-Drosha-FLAG and pCK-DGCR8-FLAG (9:1 mass ratio). […]

[2] = system: transcript encoding the green fluorescent protein (GFP) in HEK 293 cells stably expressing GFP; assay: Cell culture assay for miRNA activity (GFP silencing, transient transfection, flow cytometry); type: cell-based, human
Description: To examine the relationship between bulge size in the basal segments and gene silencing, we developed a general cell culture assay for miRNA activity (FIG. 1D). miRNAs designed to target a transcript encoding the green fluorescent protein (GFP) were inserted into the 3′ untranslated region (UTR) of a constitutively-expressed transcript encoding the fluorescent protein DsRed-Express. Plasmid DNA encoding the DsRed-Express construct was transfected into HEK 293 cells stably expressing GFP. The level of miRNA-mediated gene silencing was determined by flow cytometry analysis, where DsRed-Express levels were used to distinguish between transfected and untransfected cells. Using the cell culture assay, miRNAs with the same bulges as in the in vitro experiments were tested for silencing efficiency. […] Therefore, proper Drosha processing and gene silencing correlate with the size of the bulge in the miRNA basal segments.
293 and Flp-In-293 cells were maintained in DMEM supplemented with 10% FBS at 37° C. in a 5% CO2—humidified incubator. Transient transfections were conducted with Fugene 6 (Roche) according to the manufacturer's instructions one day after seeding. Immediately prior to transfection, the media was supplemented with the appropriate ligand at the specified concentration. Ligand concentrations were selected to maximize the regulatory response without severely compromising cell viability over the course of the transient assays. The media was replaced two days post-transfection. Three days post-transfection, the cells were trypsinized and subjected to flow cytometry analysis on a Cell Lab Quanta SC MPL (Beckman Coulter) and the resulting data was analyzed using the Flowjo software (Tree Star). Cells were initially gated for viability by electronic volume and side scatter. GFP and DsRed fluorescence of viable cells were measured through a 525 nm and […] band pass filter, respectively, after excitation with a 488 nm laser. Moderate to high DsRed levels served as a transfection control to gate between transfected and untransfected cells. Transfected cells could be distinguished from untransfected cells with this method even when four miRNAs were present in the 3′ UTR of the DsRed-Express encoding transcript (data not shown). GFP levels were calculated as the median fluorescence of the transfected population divided by that of the untransfected population (Beisel et al., 2008). This normalization approach corrected for the bias from pleiotropic effects associated with each small molecule. All ratios were normalized such that the value for DsRed-Express lacking a miRNA under the same conditions was set to 100%.

[3] = system: transcript encoding DsRed-Express; assay: DsRed-Express levels, regulation in cis (transient transfection, flow cytometry); type: cell-based, human
Description: To assess the capacity for ligand-responsive miRNAs to regulate gene expression in cis, we measured expression levels for the transcripts harboring the ligand-responsive miRNAs targeting GFP and La. DsRed-Express levels were quantified by flow cytometry under similar conditions as the trans-targeted gene silencing experiments. […] Transcript analysis confirmed that the predominant regulatory mechanism of ligand-responsive miRNAs in cis is mRNA destabilization (FIG. 10).
293 and Flp-In-293 cells were maintained in DMEM supplemented with 10% FBS at 37° C. in a 5% CO2—humidified incubator. Transient transfections were conducted with Fugene 6 (Roche) according to the manufacturer's instructions one day after seeding. Immediately prior to transfection, the media was supplemented with the appropriate ligand at the specified concentration. […] Three days post-transfection, the cells were trypsinized and subjected to flow cytometry analysis on a Cell Lab Quanta SC MPL (Beckman Coulter) and the resulting data was analyzed using the Flowjo software (Tree Star). […] GFP and DsRed fluorescence of viable cells were measured through a 525 nm and […] band pass filter, respectively, after excitation with a 488 nm laser. […] GFP levels were calculated as the median fluorescence of the transfected population divided by that of the untransfected population (Beisel et al., 2008). […]

targeted GFP transcript = assay: Self-targeting miRNA circuit, GFP levels in stable 293-Flp-In cells (flow cytometry, time course); type: cell-based, human; conditions: 1.5 mM theophylline for over a week; compared to th1′
Description: Ligand-responsive miRNAs can regulate genes in trans through RISC targeting and in cis through Drosha cleavage. A control system based on combining both modes of regulation into ‘self-targeting miRNAs’ may offer tighter regulation while still operating within the 3′ UTR of the transgene encoding transcript. We developed a dual-acting miRNA circuit based on the insertion of ligand-responsive miRNAs or miRNA clusters into the 3′ UTR of a targeted GFP transcript (FIG. 6A), where ligand control of Drosha cleavage is expected to impact direct destabilization of the cleaved transcript and subsequent RISC-mediated inactivation of other target transcripts. The resulting constructs were stably integrated into 293-Flp-In cells to ensure consistent expression for all constructs. […]
Stable transfection of 293-Flp-In cell lines was performed using the Flp-In recombinase system (Invitrogen) according to the manufacturer's instructions to generate isogenic stable cell lines. Integrants were selected using 200 μg/ml hygromycin B (Invitrogen), whereas stable cell lines were maintained in 50 μg/ml hygromycin B. The procedure described above for the fluorescence expression analysis of transiently transfected cell populations was used to analyze the stable cell lines with notable exceptions. […]

B1: th1: SEQ ID NO. 23; GFP-targeting miRNA with a theophylline aptamer in the basal segments (nucleic acid)
chain: TCTAGAACGGGTCCTGATACCAGCGTGAGCGAGCACAAGCTGGAGTACAACTATAGTGAAGCCACAGATGTATAGTTGTACTCCAGCTTGTGCCCGCCTACGCCCTTGGCAGCAGGGCCC
modifications: expressed or natural sequence
notes: 23; GFP-targeting miRNA with a theophylline aptamer in the basal segments
- size of primary products of Drosha processing ([1]; in vitro transcribed miRNA, PAGE): ~61 nts
- effect of theophylline on Drosha processing ([1]; presence or absence of 5 mM theophylline): theophylline inhibited proper processing
- GFP silencing ([2]; single copy, absence of ligand): silence GFP with comparable strength
- response of GFP levels to theophylline ([2]; transient transfection with varying theophylline concentrations): theophylline dose-dependent increase in GFP expression levels
- GFP silencing and theophylline response of two miRNA copies, adjacent placement ([2]; two copies, shortest spacer (2 nt), 5 mM theophylline): compromised both silencing and the response to theophylline
- GFP silencing and theophylline response of two miRNA copies, increased spacer length ([2]; two copies, spacer up to 112 nt, 5 mM theophylline, versus single copy): restored and even exceeded the silencing activity and theophylline-dependence from a single copy
- GFP silencing versus miRNA copy number ([2]; up to four copies separated by 112 nt spacer): GFP silencing increased with each additional copy
- dynamic range (ratio of GFP levels in the presence or absence of theophylline) versus copy number ([2]; up to four copies, 112 nt spacer, 5 mM theophylline): increased silencing and the dynamic range
- ligand regulation of DsRed-Express in cis ([3]; 5 mM theophylline): two copies were sufficient to introduce ligand regulation
- DsRed silencing in cis versus copy number ([3]; one to four copies, transient transfection): DsRed silencing increased with increasing copy number
- GFP silencing and dynamic range of self-targeting versus non-targeting miRNAs (targeted GFP transcript): improved both GFP silencing and the dynamic range
